In article doi:10.1101/2024.08.27.609886:

Target: FibrilPaint1
Assay: MST

E3 ligase CHIP (from UniProt Q9UNE7 23-303) (enzyme)
Kd: 1500 nM
